Assay results: the RNAGym collection of RNA variant scans (doi:10.1093/molbev/msab373)

B1: Azoarcus group I ribozyme (parent)
chain: GUGCCUUGCGCCGGGAAACCACGCAAGGGAUGGUGUCAAAUUCGGCGAAACCUAAGCGCCCGCCCGGGCGUAUGGCAACGCCGAGCCAAGCUUCGGCGCCUGCGCCGAUGAAGGUGUAGAGACUAGACGGCACCCACCUAAGGCAAACGCUAUGGUGAAGGCAUAGUCCAGGGAGUGGCGAAAGUCACACAAACCGG

Variants of: B1
Assay: reverse-splicing fitness (ratio to wild type); higher = more active; in vitro selection; Mg2+ level not given
How it was run: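 An in vitro group I ribozyme library with randomized positions was T7-transcribed and gel-purified. In triplicate, 10 pmol RNA in EPPS pH 7.5 was reacted with 50 pmoles of a 30-nt RNA substrate for 1 h at 37 °C across several added MgCl2 levels (1–48 mM), then stopped with EDTA. Products were reverse transcribed from a substrate-complementary primer, PCR-amplified and sequenced (HiSeq 4000). Fitness is a variant's read proportion after selection over that before, normalised to wild type.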

Point of comparison: GUGCCUUGCGCCGGGAAACCACGCAAGGGAUGGUGUCAAAUUCGGCGAAACCUAAGCGCCCGCCCGGGCGUAUGGCAACGCGGAGCCAAGCUUCGGCGCCUGCGCCGAUGUAGGUGUAGCGACUAGACGGCACCCACCUAAGGCCAACGAUAUGGUGAAGGCAUAGUCUAGGGAGCGGCGAAAGUCACACAAACCGG [C82G A111U A120C A145C C150A C169U U176C], reverse-splicing fitness 0.0105. Against it:
- GUGCCUUGCGCCGGGAAACCACGCAAGGGAUGGUGUCAAAUUCGGCGAAACCUAAGCGCCCGCCCGGGCGUAUGGCAACGCGGAGCCAAGCUUCGGCGCCUGCGCCGAUGUAGGUGUAGCGACUAGACGGCACCCACCUAAGGCCAACGAUAUGGUGAAGGCAUAGUCUAGGGAGUGGCGAAAGUCACACAAACCGG [C82G A111U A120C A145C C150A C169U] — lower, 0.01
- GUGCCUUGCGCCGGGAAACCACGCAAGGGAUGGUGUCAAAUUCGGCGAAACCUAAGCGCCCGCCCGGGCGUAUGGCAACGCGGAGCCAAGCUUCGGCGCCUGCGCCGAUGUAGGUGUAGCGACUAGACGGCACCCACCUAAGGCCAACGAUAUGGUGAAGGCAUAGUCAAGGGAGUGGCGAAAGUCACACAAACCGG [C82G A111U A120C A145C C150A C169A] — lower, 0.01
- GUGCCUUGCGCCGGGAAACCACGCAAGGGAUGGUGUCAAAUUCGGCGAAACCUAAGCGCCCGCCCGGGCGUAUGGCAACGCGGAGCCAAGCUUCGGCGCCUGCGCCGAUGUAGGUGUAGCGACUAGACGGCACCCACCUAAGGCCAACGAUAUGGUGAAGGCAUAGUCGAGGGAGUGGCGAAAGUCACACAAACCGG [C82G A111U A120C A145C C150A C169G] — lower, 0.00886
- GUGCCUUGCGCCGGGAAACCACGCAAGGGAUGGUGUCAAAUUCGGCGAAACCUAAGCGCCCGCCCGGGCGUAUGGCAACGCGGAGCCAAGCUUCGGCGCCUGCGCCGAUGUAGGUGUAGCGACUAGACGGCACCCACCUAAGGCCAACGGUAUGGUGAAGGCAUAGUCGAGGGAGAGGCGAAAGUCACACAAACCGG [C82G A111U A120C A145C C150G C169G U176A] — higher, 0.0106
- GUGCCUUGCGCCGGGAAACCACGCAAGGGAUGGUGUCAAAUUCGGCGAAACCUAAGCGCCCGCCCGGGCGUAUGGCAACGCGGAGCCAAGCUUCGGCGCCUGCGCCGAUGUAGGUGUAGCGACUAGACGGCACCCACCUAAGGCCAACGAUAUGGUGAAGGCAUAGUCGAGGGAGAGGCGAAAGUCACACAAACCGG [C82G A111U A120C A145C C150A C169G U176A] — higher, 0.0314
- GUGCCUUGCGCCGGGAAACCACGCAAGGGAUGGUGUCAAAUUCGGCGAAACCUAAGCGCCCGCCCGGGCGUAUGGCAACGCGGAGCCAAGCUUCGGCGCCUGCGCCGAUGUAGGUGUAGCGACUAGACGGCACCCACCUAAGGCCAACGAUAUGGUGAAGGCAUAGUCGAGGGAGCGGCGAAAGUCACACAAACCGG [C82G A111U A120C A145C C150A C169G U176C] — higher, 0.0279
- GUGCCUUGCGCCGGGAAACCACGCAAGGGAUGGUGUCAAAUUCGGCGAAACCUAAGCGCCCGCCCGGGCGUAUGGCAACGCGGAGCCAAGCUUCGGCGCCUGCGCCGAUGUAGGUGUAGCGACUAGACGGCACCCACCUAAGGCCAACGAUAUGGUGAAGGCAUAGUCGAGGGAGGGGCGAAAGUCACACAAACCGG [C82G A111U A120C A145C C150A C169G U176G] — lower, 0.00687
- GUGCCUUGCGCCGGGAAACCACGCAAGGGAUGGUGUCAAAUUCGGCGAAACCUAAGCGCCCGCCCGGGCGUAUGGCAACGCGGAGCCAAGCUUCGGCGCCUGCGCCGAUGUAGGUGUAGCGACUAGACGGCACCCACCUAAGGCCAACGCUAUGGUGAAGGCAUAGUCCAGGGAGUGGCGAAAGUCACACAAACCGG [C82G A111U A120C A145C] — higher, 0.0408
- GUGCCUUGCGCCGGGAAACCACGCAAGGGAUGGUGUCAAAUUCGGCGAAACCUAAGCGCCCGCCCGGGCGUAUGGCAACGCGGAGCCAAGCUUCGGCGCCUGCGCCGAUGUAGGUGUAGCGACUAGACGGCACCCACCUAAGGCAAACGCUAUGGUGAAGGCAUAGUCCAGGGAGUGGCGAAAGUCACACAAACCGG [C82G A111U A120C] — higher, 0.0483
- GUGCCUUGCGCCGGGAAACCACGCAAGGGAUGGUGUCAAAUUCGGCGAAACCUAAGCGCCCGCCCGGGCGUAUGGCAACGCGGAGCCAAGCUUCGGCGCCUGCGCCGAUGUAGGUGUAGCGACUAGACGGCACCCACCUAAGGCCAACGAUAUGGUGAAGGCAUAGUCAAGGGAGGGGCGAAAGUCACACAAACCGG [C82G A111U A120C A145C C150A C169A U176G] — lower, 0.00706
- GUGCCUUGCGCCGGGAAACCACGCAAGGGAUGGUGUCAAAUUCGGCGAAACCUAAGCGCCCGCCCGGGCGUAUGGCAACGCGGAGCCAAGCUUCGGCGCCUGCGCCGAUGUAGGUGUAGCGACUAGACGGCACCCACCUAAGGCCAACGAUAUGGUGAAGGCAUAGUCAAGGGAGCGGCGAAAGUCACACAAACCGG [C82G A111U A120C A145C C150A C169A U176C] — higher, 0.0121
- GUGCCUUGCGCCGGGAAACCACGCAAGGGAUGGUGUCAAAUUCGGCGAAACCUAAGCGCCCGCCCGGGCGUAUGGCAACGCGGAGCCAAGCUUCGGCGCCUGCGCCGAUGUAGGUGUAGCGACUAGACGGCACCCACCUAAGGCCAACGAUAUGGUGAAGGCAUAGUCAAGGGAGAGGCGAAAGUCACACAAACCGG [C82G A111U A120C A145C C150A C169A U176A] — higher, 0.0162
- GUGCCUUGCGCCGGGAAACCACGCAAGGGAUGGUGUCAAAUUCGGCGAAACCUAAGCGCCCGCCCGGGCGUAUGGCAACGCGGAGCCAAGCUUCGGCGCCUGCGCCGAUGUAGGUGUAGCGACUAGACGGCACCCACCUAAGGCCAACGAUAUGGUGAAGGCAUAGUCUAGGGAGGGGCGAAAGUCACACAAACCGG [C82G A111U A120C A145C C150A C169U U176G] — lower, 0.00605
- GUGCCUUGCGCCGGGAAACCACGCAAGGGAUGGUGUCAAAUUCGGCGAAACCUAAGCGCCCGCCCGGGCGUAUGGCAACGCGGAGCCAAGCUUCGGCGCCUGCGCCGAUGUAGGUGUAGCGACUAGACGGCACCCACCUAAGGCCAACGAUAUGGUGAAGGCAUAGUCUAGGGAGAGGCGAAAGUCACACAAACCGG [C82G A111U A120C A145C C150A C169U U176A] — higher, 0.0126
